From publication PMC3880350, “The mononuclear metal center of type-I dihydroorotase from aquifex aeolicus” (BMC Biochemistry, 2013)
Where a chain is given by its changes, count along the chain named. In names and notes the source's numbering stands.

Experiments:
[1] = biological target: T1, A. aeolicus DHO-ATC complex (ATC active site) (Aquifex aeolicus, UniProt O66726); experiment: X-ray crystal structure, […] Å; type: binding; conditions: crystal soaked in 1 mM PALA, 15 mM dihydroorotate, pH 5, bisubstrate analogue, mutations only in the DHO partner
T1 construct: gene pyrB; both with 3 kDa N-terminal His tag (pRSETC), E. coli BL21(DE3); with Dihydroorotase

[2] = biological target: T2, A. aeolicus DHO-ATC complex (DHO active site) (Aquifex aeolicus, UniProt O66990, H180A/H232A); experiment: X-ray crystal structure, […] Å; type: binding; conditions: crystal soaked in 15 mM dihydroorotate, 1 mM PALA, pH 5; DHO active site with one zinc
T2 construct: gene pyrC; both subunits full length with 3 kDa N-terminal His tag (pRSETC), expressed separately in E. coli BL21(DE3), mixed equimolar, dodecamer (6 DHO + 6 ATC) isolated by gel filtration; DHO 422 residues; with Aspartate carbamoyltransferase catalytic subunit

[3] = substrate: O=C1C[C@@H](C(=O)O)NC(=O)N1; experiment: colorimetric carbamoyl aspartate formation, saturation curve; type: biochemical, Aquifex aeolicus
From the text: colorimetric carbamoyl aspartate formation, saturation curve on A. aeolicus DHO-ATC complex (DHO active site)

[4] = biological target: T3, Aquifex aeolicus dihydroorotase (DHO) subunit, His180Ala mutant (Aquifex aeolicus, UniProt O66990 1-422, His180Ala); experiment: SEC; purified subunits mixed in an equimolar ratio; complex isolated by gel filtration on a Sephacryl S-300 column; composition analysed by SDS-PAGE and ATC and DHO assays; conditions: both partners purified
T3 construct: Dihydroorotase (pyrC) of Aquifex aeolicus with His180 replaced by alanine; made by PCR on the plasmid that encodes the DHO subunit; Same construct as m1 with the point mutation
T3 sequence: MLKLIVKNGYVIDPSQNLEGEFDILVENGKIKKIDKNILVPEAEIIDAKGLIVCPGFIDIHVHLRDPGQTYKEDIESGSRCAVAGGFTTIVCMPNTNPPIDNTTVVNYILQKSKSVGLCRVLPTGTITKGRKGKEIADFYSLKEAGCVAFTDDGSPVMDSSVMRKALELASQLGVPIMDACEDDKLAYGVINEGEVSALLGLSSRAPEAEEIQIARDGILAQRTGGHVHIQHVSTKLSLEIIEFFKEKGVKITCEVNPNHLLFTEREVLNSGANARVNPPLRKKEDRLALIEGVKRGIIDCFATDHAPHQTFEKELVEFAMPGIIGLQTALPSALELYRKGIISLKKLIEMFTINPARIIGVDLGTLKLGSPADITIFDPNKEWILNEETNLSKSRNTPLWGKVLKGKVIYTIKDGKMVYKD

[5] = biological target: T4, Aquifex aeolicus dihydroorotase (DHO) subunit, His180Ala/His232Ala double mutant (Aquifex aeolicus, UniProt O66990 1-422, His180Ala | His232Ala); experiment: as above; conditions: both partners purified
T4 construct: Dihydroorotase (pyrC) of Aquifex aeolicus with His180 and His232 replaced by alanine; made by PCR on the plasmid that encodes the DHO subunit; 422 C-alpha atoms in the structure; Same construct as m1 with the two point mutations; In the crystal one zinc and dihydroorotate in the active site; also called DHO Double Mutant; mutant DHO
T4 sequence: T3 sequence with H232A

[6] = biological target: T5, Aquifex aeolicus dihydroorotase (DHO) subunit, His232Ala mutant (Aquifex aeolicus, UniProt O66990 1-422, His232Ala); experiment: as above; conditions: both partners purified
T5 construct: Dihydroorotase (pyrC) of Aquifex aeolicus with His232 replaced by alanine; made by PCR on the plasmid that encodes the DHO subunit; Same construct as m1 with the point mutation
T5 sequence: T3 sequence with A180H, H232A

[7] = biological target: T6, Aquifex aeolicus dihydroorotase (DHO) subunit, wild type (Aquifex aeolicus, UniProt O66990 1-422); experiment: as above; conditions: both partners purified
T6 construct: Dihydroorotase (pyrC) of Aquifex aeolicus; gene amplified by PCR from the genome and inserted into pRSETC; One zinc ion per subunit; also called Wild Type DHO; A. aeolicus DHO
T6 sequence: T3 sequence with A180H

[8] = biological target: the molecule itself; experiment: crystal structure; DHO double mutant-ATC complex, hanging drop, room temperature, 30% ethylene glycol with barium chloride; crystals soaked in 1 mM PALA and 15 mM dihydroorotate at pH 5; 2.2 Å
[9] = 250 mM Tris acetate (Figure 7; Methods: 50 mM), pH 8.3, 72°C, mutant DHO reconstituted with native ATC

`O=C(O)C[C@H](NC(=O)CP(=O)(O)O)C(=O)O` [PALA] was tested, and the “X-ray crystal structure, 2.2 Å” value [1] was “bisubstrate analog, N-phosphoacetyl L-aspartate (PALA) bound to the active site of the A. aeolicus ATC”.

`O=C1C[C@@H](C(=O)O)NC(=O)N1` [dihydroorotate] was tested, and the “X-ray crystal structure, 2.2 Å” value [2] was “one DHO subunit with one zinc atom and dihydroorotate in its active site”.

B1: A. aeolicus DHO-ATC complex (DHO active site) (Aquifex aeolicus VF5) (protein)
chain: T3 sequence with A180H
notes: both subunits full length with 3 kDa N-terminal His tag (pRSETC), expressed separately in E. coli BL21(DE3), mixed equimolar, dodecamer (6 DHO + 6 ATC) isolated by gel filtration; DHO 422 residues; with Aspartate carbamoyltransferase catalytic subunit
B1 showed a Km ([3]; no exogenous zinc, 250 mM Tris acetate (Figure 4; Methods: 50 mM), pH 8.3, 75°C (Figure 4: 72°C), DHO reverse direction (hydrolysis)) of 1520 ± 300 µM.

B2: A. aeolicus DHO-ATC complex (DHO active site) (Aquifex aeolicus VF5; H180A) (protein)
chain: T3 sequence
notes: as for B1
B2 was tested, and the Km [3, 9] was 1650 ± 260 µM.

B3: A. aeolicus DHO-ATC complex (DHO active site) (Aquifex aeolicus VF5; H232A) (protein)
chain: T3 sequence with A180H, H232A
notes: as for B1
For B3, the Km [3, 9] was 1340 ± 220 µM.

B4: A. aeolicus DHO-ATC complex (DHO active site) (Aquifex aeolicus VF5; H180A/H232A) (protein)
chain: T3 sequence with H232A
notes: as for B1
Work on B4 yielded a Km [3, 9] of 1550 ± 300 µM.

B5: Aquifex aeolicus aspartate transcarbamoylase (ATC) subunit (enzyme)
chain: MRSLISSLDLTREEVEEILKYAKEFKEGKEETIKASAVLFFSEPSTRTRLSFEKAARELGIETYLVSGSESSTVKGESFFDTLKTFEGLGFDYVVFRVPFVFFPYKEIVKSLNLRLVNAGDGTHQHPSQGLIDFFTIKEHFGEVKDLRVLYVGDIKHSRVFRSGAPLLNMFGAKIGVCGPKTLIPRDVEVFKVDVFDDVDKGIDWADVVIWLRLQKERQKENYIPSESSYFKQFGLTKERFEKVKLYMHPGPVNRNVDIDHELVYTEKSLIQEQVKNGIPVRKAIYKFLWT
notes: Aspartate transcarbamoylase (pyrB) of Aquifex aeolicus; gene amplified by PCR from the genome and inserted into pRSETC; 291 residues superposed in the structure; also called native ATC; pyrB product
B5: binds [4]; binds [5]; binds [6]. For the same molecule, the binding result [7] was “binds” and the “stoichiometry N” value [8] was 3.
